Among the data in the supplement of paper PMC10126150 are switch fluorescence ratio values, retold here.

± gives the standard deviation of the averaged measurements.

This data set has as its system ATP. Nature of the data set: switch fluorescence ratio, 500 uM ATP over buffer (Cy3 cluster intensity, sum of 5 cycles each) (fold (ratio)); higher = stronger signal-on switching upon ATP binding; sequences stand for … in TCGTCGGCAGCGTCAGATGTGTATAAGAGACAGTTTTTTTTTTTTTTTTTTTTTTTTT…TC. The note with it: aptamer strand: ATP DNA aptamer (quencher-CACCTGGGGGAGTATTGCGGAGGAAGG + anchor), 100 nM annealed; ATP concentration: 500 uM. In outline:
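Per cluster, summed Cy3 intensity from the target cycles was divided by that from the buffer cycles to give the fluorescence ratio, then averaged per switch-domain sequence. Clusters outside 100-1000 RFU were excluded. The Cy3-labelled switching-strand clusters, on a modified Illumina MiSeq flow-cell, were annealed to 100 nM quencher-labelled ATP aptamer and imaged in selection buffer, then after 15 min with 500 uM ATP at 22 °C, for five cycles with NaOH stripping and re-annealing between them.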
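Also: ATP exposure 15 min at 22 °C before imaging.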

AAAAAAAAAA: the switch fluorescence ratio turned out to be 1 ± 0.022. For the sequence AAAAAAAAAT, the switch fluorescence ratio was 1.04 ± 0.03. In the case of AAAAAAAATT it was 0.993 ± 0.044; in that of AAAAAACGGT, 1.02 ± 0.025.

Take AAAAAAGGGG: the switch fluorescence ratio was determined as 1.87 ± 1.5. For the sequence AAAAAAGGTG, the switch fluorescence ratio was 1.16 ± 0.22. Take AAAAAATGTG: the switch fluorescence ratio came to 0.99 ± 0.031. For the sequence AAAAAATTGG, the switch fluorescence ratio stood at 0.989 ± 0.035.

Turning to AAAAACATGG, the switch fluorescence ratio was determined as 1.012 ± 0.0096. In the case of AAAAAGAAAT it was 1.04 ± 0.021; in that of AAAAAGCAGG, 1.13 ± 0.14; in that of AAAAAGGAAT, 0.982 ± 0.011. In the case of AAAAAGGGAG, the switch fluorescence ratio turned out to be 1.01 ± 0.044. As to AAAAAGGGCA, the switch fluorescence ratio is 0.995 ± 0.061.

For AAAAAGGGT, the switch fluorescence ratio was found to be 0.987 ± 0.032. For the sequence AAAAAGGGTT, the switch fluorescence ratio was found to be 1 ± 0.025. In the case of AAAAAGTGAG it was 0.973 ± 0.042; in that of AAAAATCCTG, 0.98 ± 0.021; in that of AAAAATCGT, 1.01 ± 0.014. AAAAATGCCG: the switch fluorescence ratio came to 0.99 ± 0.019. For AAAAATGCGC, the switch fluorescence ratio amounted to 1.03 ± 0.017. Regarding AAAAATGGGC, the switch fluorescence ratio was determined as 1.035 ± 0.005. With AAAAATGTTC, the switch fluorescence ratio is 0.9814 ± 4.7e-05. In the case of AAAAATTGTG it was 1.01 ± 0.046; in that of AAAAATTGTT, 0.986 ± 0.027; in that of AAAACAGTTC, 1.04 ± 0.048. Consider AAAACAGTTT, for which the switch fluorescence ratio is 0.987 ± 0.036.

On to AAAACCCGA, for which the switch fluorescence ratio was found to be 1.01 ± 0.051.

On to AAAACCGTCG, for which the switch fluorescence ratio worked out at 1.1 ± 0.023.

On to AAAACCTTGG, for which the switch fluorescence ratio amounted to 1.05 ± 0.021. With AAAACGCATG, the switch fluorescence ratio is 1.05 ± 0.021.

As for AAAACGGCGT, the switch fluorescence ratio was determined as 0.959 ± 0.01. Regarding AAAACGGGAA, the switch fluorescence ratio is 1.02 ± 0.018.

For AAAACGTAAC, the switch fluorescence ratio was determined as 1.25 ± 0.1. In the case of AAAACGTTTA it was 1.01 ± 0.043; in that of AAAACTAACG, 1.1 ± 0.037; in that of AAAACTATTT, 0.9865 ± 0.0064. In the case of AAAACTGTCA, the switch fluorescence ratio worked out at 1.009 ± 0.0086. In the case of AAAACTTTAT it was 0.978 ± 0.013; in that of AAAAGAAACC, 1.13 ± 0.048; in that of AAAAGAGATT, 0.995 ± 0.013. On to AAAAGCAGGA, for which the switch fluorescence ratio worked out at 1.05 ± 0.052. Take AAAAGCCCTT: the switch fluorescence ratio was 1.096 ± 0.0043. For the sequence AAAAGCCGGT, the switch fluorescence ratio came out at 1.02 ± 0.034.

AAAAGCGGGT: the switch fluorescence ratio was found to be 0.997 ± 0.023. As to AAAAGCTTGC, the switch fluorescence ratio was found to be 1.13 ± 0.11. As for AAAAGGAGGC, the switch fluorescence ratio turned out to be 1.01 ± 0.011. Regarding AAAAGGGAGA, the switch fluorescence ratio amounted to 1.01 ± 0.013. AAAAGGGAGG: the switch fluorescence ratio was 1.03 ± 0.019. In the case of AAAAGGGGGA it was 1.02 ± 0.022; in that of AAAAGTATTA, 1.01 ± 0.025.

For AAAAGTGACC, the switch fluorescence ratio was determined as 1.01 ± 0.045.

On to AAAAGTGACT, for which the switch fluorescence ratio amounted to 0.982 ± 0.049. As to AAAAGTGCCA, the switch fluorescence ratio is 0.999 ± 0.027. In the case of AAAAGTTGTT it was 1.04 ± 0.019; in that of AAAAGTTTGA, 0.9656 ± 0.008; in that of AAAATAATTA, 0.981 ± 0.012.

Consider AAAATACGCT, for which the switch fluorescence ratio amounted to 1.16 ± 0.17. In the case of AAAATAGCCG it was 1.04 ± 0.054; in that of AAAATAGGCC, 1.02 ± 0.013.

Regarding AAAATAGGCT, the switch fluorescence ratio worked out at 0.993 ± 0.029. AAAATATGTG: the switch fluorescence ratio turned out to be 1.02 ± 0.062. As for AAAATATTTT, the switch fluorescence ratio is 0.981 ± 0.027.

Consider AAAATCGCGT, for which the switch fluorescence ratio was 0.998 ± 0.057. For the sequence AAAATGAAGA, the switch fluorescence ratio worked out at 0.993 ± 0.026. Turning to AAAATGAAGT, the switch fluorescence ratio was 1.03 ± 0.048. For AAAATGATAT, the switch fluorescence ratio is 0.99 ± 0.02. With AAAATGCGAT, the switch fluorescence ratio came out at 1.01 ± 0.045. In the case of AAAATGGAAG, the switch fluorescence ratio amounted to 0.9997 ± 0.0056. AAAATGGACA: the switch fluorescence ratio amounted to 1.03 ± 0.019. As for AAAATGGAGG, the switch fluorescence ratio came to 1.005 ± 0.0049. In the case of AAAATGGGGA, the switch fluorescence ratio was 1.02 ± 0.033.

As for AAAATGGTGG, the switch fluorescence ratio is 1.02 ± 0.013.

Regarding AAAATGTCGA, the switch fluorescence ratio is 1 ± 0.024. As to AAAATTCCGG, the switch fluorescence ratio is 1.011 ± 0.0011. As for AAAATTGACT, the switch fluorescence ratio is 1.002 ± 0.003. AAAATTGGTT: the switch fluorescence ratio worked out at 1.009 ± 0.007.

Take AAAATTTATT: the switch fluorescence ratio is 0.989 ± 0.018. For AAAATTTTAT, the switch fluorescence ratio was determined as 0.989 ± 0.026. In the case of AAAATTTTGA, the switch fluorescence ratio amounted to 0.992 ± 0.025.

Take AAACAAAAGT: the switch fluorescence ratio worked out at 1.01 ± 0.037. Turning to AAACAAACCC, the switch fluorescence ratio turned out to be 1.01 ± 0.042. Turning to AAACACGACT, the switch fluorescence ratio came out at 1.07 ± 0.011. For the sequence AAACACGAGC, the switch fluorescence ratio was 1.067 ± 0.0061. In the case of AAACAGCGTG, the switch fluorescence ratio was 1.01 ± 0.017.

As for AAACAGTATA, the switch fluorescence ratio is 1.03 ± 0.027. With AAACAGTTGT, the switch fluorescence ratio is 1.01 ± 0.055.

Consider AAACATAAAG, for which the switch fluorescence ratio is 0.995 ± 0.027. Consider AAACATAGCC, for which the switch fluorescence ratio came out at 1.07 ± 0.011. In the case of AAACATAGGG, the switch fluorescence ratio is 1.02 ± 0.038.

For the sequence AAACCAAACT, the switch fluorescence ratio stood at 1.34 ± 0.31. With AAACCACCCA, the switch fluorescence ratio worked out at 1.1 ± 0.019. Consider AAACCCAGCT, for which the switch fluorescence ratio was determined as 0.988 ± 0.02.

AAACCCTGGG: the switch fluorescence ratio is 1.04 ± 0.029. For the sequence AAACCGTT, the switch fluorescence ratio came to 1.04 ± 0.024. Consider AAACCTTGCA, for which the switch fluorescence ratio is 1.92 ± 0.15.

AAACGAACAT: the switch fluorescence ratio was found to be 1.217 ± 0.011. Regarding AAACGACATT, the switch fluorescence ratio is 1.13 ± 0.13. With AAACGAGAAC, the switch fluorescence ratio came out at 3.04 ± 2.8.

Turning to AAACGAGGGA, the switch fluorescence ratio turned out to be 0.997 ± 0.051. For the sequence AAACGATTTC, the switch fluorescence ratio amounted to 1.01 ± 0.019. Take AAACGCATCT: the switch fluorescence ratio came out at 1.1304 ± 0.0008. AAACGCCGAA: the switch fluorescence ratio was 0.986 ± 0.062. Take AAACGCGACT: the switch fluorescence ratio amounted to 1.31 ± 0.2. In the case of AAACGGATGC, the switch fluorescence ratio is 0.9573 ± 0.0092.

Regarding AAACGGCACG, the switch fluorescence ratio came to 1.009 ± 0.0032.

For AAACGGCTCT, the switch fluorescence ratio turned out to be 0.967 ± 0.031. AAACGGGAG: the switch fluorescence ratio was found to be 1.032 ± 0.0067. For AAACGGGGGC, the switch fluorescence ratio was found to be 1 ± 0.085. Turning to AAACTACTAC, the switch fluorescence ratio came out at 1.147 ± 0.0017. As to AAACTCGCGC, the switch fluorescence ratio turned out to be 1.07 ± 0.012.

Consider AAACTCTTGT, for which the switch fluorescence ratio is 1.01 ± 0.0033.

On to AAACTCTTTT, for which the switch fluorescence ratio was found to be 0.978 ± 0.039.

For the sequence AAACTGGGCG, the switch fluorescence ratio was found to be 1.04 ± 0.062. In the case of AAACTGTTTG, the switch fluorescence ratio turned out to be 0.996 ± 0.024. On to AAACTTGGGT, for which the switch fluorescence ratio came out at 1.04 ± 0.024. In the case of AAACTTGTGA, the switch fluorescence ratio was found to be 1.02 ± 0.024.

Take AAACTTTCTT: the switch fluorescence ratio came out at 1.03 ± 0.021. In the case of AAACTTTTAA it was 1.01 ± 0.019; in that of AAAGAAACAT, 1.07 ± 0.08.
